In paper PMC10673611 (Molecules, 2023):

B1: durvalumab-based anti-hPD-L1 IgG4 antibody C5 (antibody, V domains shown)
VH: EVQLVESGGGLVQPGGSLRLSCAASGFTFSRYWMSWVRQAPGKGLEWVALISRDGSETYYVDSVKGRFTISRDNAKNSLYLQMNSLRAEDTAVYYCAREGGWFGELAFDYWGQGTLVTVSS
VL: IVLTQSPGTLSLSPGERATLSCKASEDIGTWLAWYQQKPGQAPRLLIYDASSRATGIPDRFSGSGSGTDFTLTISRLEPEDFAVYYCQQYGSLPWTFGQGTKVEIK
notes: IgG4 heavy chain; IgG4; recombinant human anti-PD-L1 antibody, previously modeled, durvalumab-based; also called C5 antibody; full C5 antibody; source: produced by Recepton, purified (MabSelect Sure, SEC); copies: 2 + 2
B2: C5M1B, C5 scFv with M1 attached to its C-terminus by a (GGGGS)4 linker (bispecific antibody, V domains shown)
VH: B1 VH
VL: B1 VL
notes: linker printed as (GGGGS)4
B3: C5M1A, asymmetric knob-into-hole C5 IgG4 with one of the Fabs replaced by M1 (bispecific antibody, V domains shown)
VH: B1 VH
VL: B1 VL
notes: it replaces one Fab; human IgG4 constant region, hinge and Fc as in the heavy chain of m7, with knob-into-hole mutations; copies: 1 + 1 + 1

What follows are binders tested against T1, programmed death ligand 1 (PD-L1) (Homo sapiens, UniProt Q9NZQ7) (assay: ELISA; indirect ELISA; MaxiSorp plates coated with protein overnight at 4 °C, blocked with 1% BSA in PBS, ligands diluted in PBS 1 h at RT, detection with anti-IgG Fc or anti-His-Tag antibody and HRP-streptavidin, TMB; the paper does not say for each pair which partner was coated). Conditions: both partners purified.
T1 construct: human programmed death ligand 1; HEK293 transient, Ni Sepharose and SEC; also called hPD-L1
T1 sequence (Q9NZQ7 19-290): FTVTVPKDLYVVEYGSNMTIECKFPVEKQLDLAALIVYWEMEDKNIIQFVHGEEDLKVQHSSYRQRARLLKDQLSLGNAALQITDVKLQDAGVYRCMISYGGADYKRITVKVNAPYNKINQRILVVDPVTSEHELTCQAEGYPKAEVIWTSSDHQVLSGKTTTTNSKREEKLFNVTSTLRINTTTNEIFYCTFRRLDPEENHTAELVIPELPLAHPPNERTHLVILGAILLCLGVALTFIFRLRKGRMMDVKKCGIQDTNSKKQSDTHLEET

Binder | binding result
B1 | binds
B2 | binds
B3 | binds
